This note sets out measurements from the RNAGym collection of RNA variant scans (doi:10.7554/elife.80360).

B1: Hammerhead Ribozyme (parent)
chain: ACCGGAUGUGCUUUCCGGUCUGAUGAGUCCGUGAGGACGAAACAG

Variants of B1 are the subject of this data set. Description: self-cleavage, relative activity (ratio to wild type); higher = more cleavage; co-transcriptional.
As for ACCGGAUGUGCUUUCCGGUCUGAUGGGUCCGUGAGGACGAAAAAG, the self-cleavage was determined as 0.325.

In the case of ACCGGAUGUGCUUUCCGGUCUGAUGGGUCCGUGAGGACGAAAUAG, the self-cleavage was 0.285.

With ACCGGAUGUGCUUUCCGGUCUGAUGGGUCCGUGAGGACGAAAGAG, the self-cleavage turned out to be 0.31.

For ACCGGAUGUGCUUUCCGGUCUGAUGGGUCCGUGAGGACGAAACGG, the self-cleavage worked out at 0.654.

On to ACCGGAUGUGCUUUCCGGUCUGAUGGGUCCGUGAGGACGAAACUG, for which the self-cleavage is 0.347.

Consider ACCGGAUGUGCUUUCCGGUCUGAUGGGUCCGUGAGGACGAAACCG, for which the self-cleavage is 0.266.

For ACCGGAUGUGCUUUCCGGUCUGAUGGGUCCGUGAGGACGAUACAG, the self-cleavage is 0.25.

Turning to ACCGGAUGUGCUUUCCGGUCUGAUGGGUCCGUGAGGACGACACAG, the self-cleavage was found to be 0.338.

Regarding ACCGGAUGUGCUUUCCGGUCUGAUGGGUCCGUGAGGACGAGACAG, the self-cleavage was 0.284.

On to ACCGGAUGUGCUUUCCGGUCUGAUGGGUCCUUGAGGACGAAACAG, for which the self-cleavage was found to be 0.516.

Take ACCGGAUGUGCUUUCCGGUCUGAUGGGUCCCUGAGGACGAAACAG: the self-cleavage was determined as 0.324.

On to ACCGGAUGUGCUUUCCGGUCUGAUGGGUCCAUGAGGACGAAACAG, for which the self-cleavage was 0.327.

As for ACCGGAUGUGCUUUCCGGUCUGAUGGGUCCGUCAGGACGAAACAG, the self-cleavage stood at 0.409.

For ACCGGAUGUGCUUUCCGGUCUGAUGGGUCCGUAAGGACGAAACAG, the self-cleavage stood at 0.401.

Regarding ACCGGAUGUGCUUUCCGGUCUGAUGGGUCCGUUAGGACGAAACAG, the self-cleavage was found to be 0.344.

Turning to ACCGGAUGUGCUUUCCGGUCUGAUGUGUCCGUGAGGCCGAAACAG, the self-cleavage worked out at 0.509.

For the variant ACCGGAUGUGCUUUCCGGUCUGAUGUGUCCGUGCGGACGAAACAG, the self-cleavage was 0.355.

For the variant ACCGGAUGUGCUUUCCGGUCUGAUGUGUCCGUGUGGACGAAACAG, the self-cleavage was found to be 0.584.

On to ACCGGAUGUGCUUUCCGGUCUGAUGUGUCCGUGGGGACGAAACAG, for which the self-cleavage is 0.482.

For ACCGGAUGUGCUUUCCGGUCUGAUGGGUCCGUGAGGACAAAACAG, the self-cleavage is 0.368.

ACCGGAUGUGCUUUCCGGUCUGAUGGGUCCGUGAGGACCAAACAG: the self-cleavage worked out at 0.309.

As for ACCGGAUGUGCUUUCCGGUCUGAUGGGUCCGUGAGGACUAAACAG, the self-cleavage worked out at 0.343.

As to ACCGGAUGUGCUUUCCGGUCUGAUGGGUCAGUGAGGACGAAACAG, the self-cleavage stood at 0.307.

On to ACCGGAUGUGCUUUCCGGUCUGAUGGGUCUGUGAGGACGAAACAG, for which the self-cleavage is 0.404.

With ACCGGAUGUGCUUUCCGGUCUGAUGGGUCGGUGAGGACGAAACAG, the self-cleavage is 0.245.

For ACCGGAUGUGCUUUCCGGUCUGAUGGGUCCGUGAGGUCGAAACAG, the self-cleavage is 0.352.

As to ACCGGAUGUGCUUUCCGGUCUGAUGGGUCCGUGAGGACGAAACAA, the self-cleavage amounted to 0.3.

ACCGGAUGUGCUUUCCGGUCUGAUGGGUCCGUGAGGACGAAACAU: the self-cleavage was found to be 0.338.

For ACCGGAUGUGCUUUCCGGUCUGAUGGGUCCGUGAGGACGAAACAC, the self-cleavage turned out to be 0.389.

For ACCGGAUGUGCUUUCCGGUCUGAUGGGUCCGUGAGGACGAAUCAG, the self-cleavage amounted to 0.286.

With ACCGGAUGUGCUUUCCGGUCUGAUGGGUCCGUGAGGACGAACCAG, the self-cleavage was 0.231.

With ACCGGAUGUGCUUUCCGGUCUGAUGGGUCCGUGAGGACGAAGCAG, the self-cleavage is 0.225.

Consider ACCGGAUGUGCUUUCCGGUCUGAUGGGUGCGUGAGGACGAAACAG, for which the self-cleavage worked out at 0.283.

Take ACCGGAUGUGCUUUCCGGUCUGAUGGGUUCGUGAGGACGAAACAG: the self-cleavage was 0.365.

Take ACCGGAUGUGCUUUCCGGUCUGAUGGGUACGUGAGGACGAAACAG: the self-cleavage is 0.402.

For the variant ACCGGAUGUGCUUUCCGGUCUGAUGGGACCGUGAGGACGAAACAG, the self-cleavage was 0.274.

With ACCGGAUGUGCUUUCCGGUCUGAUGGGCCCGUGAGGACGAAACAG, the self-cleavage is 0.383.

With ACCGGAUGUGCUUUCCGGUCUGAUGGGGCCGUGAGGACGAAACAG, the self-cleavage stood at 0.335.

Take ACCGGAUGUGCUUUCCGGUCUGAUGGGUCCGUGAGGAUGAAACAG: the self-cleavage amounted to 0.337.

For ACCGGAUGUGCUUUCCGGUCUGAUGGGUCCGUGAGGAAGAAACAG, the self-cleavage was 0.325.

For ACCGGAUGUGCUUUCCGGUCUGAUGGGUCCGUGAGGAGGAAACAG, the self-cleavage came out at 0.332.

On to ACCGGAUGUGCUUUCCGGUCUGAUGGGUCCGUGACGACGAAACAG, for which the self-cleavage was 0.35.

Turning to ACCGGAUGUGCUUUCCGGUCUGAUGGGUCCGUGAAGACGAAACAG, the self-cleavage was 0.286.

On to ACCGGAUGUGCUUUCCGGUCUGAUGGGUCCGUGAUGACGAAACAG, for which the self-cleavage was found to be 0.283.

Turning to ACCGGAUGUGCUUUCCGGUCUGAUGUGUCCGUGAGGACGAAACAG, the self-cleavage stood at 0.848.

For the variant ACCGGAUGUGCUUUCCGGUCUGAUGGAUCCGUGAGGACGAAACAG, the self-cleavage is 0.27.

As for ACCGGAUGUGCUUUCCGGUCUGAUGGCUCCGUGAGGACGAAACAG, the self-cleavage was 0.297.

For ACCGGAUGUGCUUUCCGGUCUGAUGGUUCCGUGAGGACGAAACAG, the self-cleavage is 0.322.

With ACCGGAUGUGCUUUCCGGUCUGAUGGGUCCGAGAGGACGAAACAG, the self-cleavage was 0.373.

Regarding ACCGGAUGUGCUUUCCGGUCUGAUGGGUCCGGGAGGACGAAACAG, the self-cleavage worked out at 0.412.

As to ACCGGAUGUGCUUUCCGGUCUGAUGGGUCCGCGAGGACGAAACAG, the self-cleavage was 0.328.

For the variant ACCGGAUGUGCUUUCCGGUCUGAUGGGUCCGUGAGGACGUAACAG, the self-cleavage is 0.412.

With ACCGGAUGUGCUUUCCGGUCUGAUGGGUCCGUGAGGACGGAACAG, the self-cleavage worked out at 0.328.

As for ACCGGAUGUGCUUUCCGGUCUGAUGGGUCCGUGAGGACGCAACAG, the self-cleavage worked out at 0.399.

Consider ACCGGAUGUGCUUUCCGGUCUGAUGGGUCCGUGAGCACGAAACAG, for which the self-cleavage came out at 0.307.

In the case of ACCGGAUGUGCUUUCCGGUCUGAUGGGUCCGUGAGUACGAAACAG, the self-cleavage is 0.412.

Turning to ACCGGAUGUGCUUUCCGGUCUGAUGGGUCCGUGAGAACGAAACAG, the self-cleavage was 0.319.
